Measurements as given in US20210324359A1, “USE OF GRAM-NEGATIVE LYSIN-ANTIMICROBIAL PEPTIDE (AMP) POLYPEPTIDE CONSTRUCTS IN TREATING ENDOCARDITIS” (priority 2020, published 2021).

Legend:
[1] = test system: Pseudomonas aeruginosa biofilm; assay: MBEC in CAA supplemented with […] human serum (Table 14); format: cell-based
Procedure, shortened: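 P. aeruginosa biofilms were washed and exposed to 2-fold lysin dilutions for 24 h at 37 °C, then washed, dried and stained with 0.05% crystal violet for 10 min. MBEC determined by standard methods in medium supplemented with human serum.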

[2] = test system: Pseudomonas aeruginosa strain 1292; conditions: 10 μg/mL, 15 minutes, 100% human serum
Source text: Samples were stained using the Live/Dead Cell Viability Kit (ThermoFisher) and examined by both differential interference contrast (DIC) and fluorescence microscopy.

[3] = test system: Pseudomonas aeruginosa strain CFS-1292 (meropenem resistant); conditions: strain CFS-1292; no added cations
Procedure: The activity of selected GN lysins and constructs in the presence of divalent cations was evaluated, and the impact of divalent cations at physiological concentrations was examined in the MIC assay format.

[4] = test system: Pseudomonas aeruginosa strain CFS-1292 (meropenem resistant); assay: MIC in 25% CAA alone, with […] human serum or […] SURVANTA (Table 13); format: cell-based
Procedure: Materials and methods: MICs were determined by broth microdilution in media supplemented with human serum and pulmonary surfactant ([…]®; Myoderm Clinical Supplies). Minimal biofilm eradicating concentrations (MBECs) were determined using standard methods. […] Fluorescence microscopy was performed after LIVE/DEAD staining (ThermoFisher) and TEM was performed.

B1: GN121: variant lysin (SEQ ID NO: 175), also disclosed in WO 2019/118632 (protein)
chain: MTYTLSKRSLDNLKGVHPDLVAVVHRAIQLTPVDFAVIEGLRSVSRQKELVAAGASKTMNSRHLTGHAVDLAAYVNGIRWDWPLYDAIAVAVKAAAKELGVAIVWGGDWTTFKDGPHFELDRSKYRRKKTRKRLKKIGKVLKWI
MBEC in CAA supplemented with […] human serum [1]: 0.25 µg/mL
live/dead bacteria by microscopy [2]: a reduction of live bacteria
MIC in 25% CAA [3]: 1 to 2 µg/mL
MIC in […] Survanta [4]: 2 µg/mL
MIC in human serum ([…]) in CAA [4]: 0.5 µg/mL
activity in human serum and pulmonary surfactant [4]: active in human serum and pulmonary surfactant
25% CAA MIC ([4]; media alone): 1
